# Laboratory results from patent publication US20240026407A1, “MODIFICATION OF SAPONINS” (GLAXOSMITHKLINE BIOLOGICALS SA, priority 2020, published 2024).
# B1: 176 (protein, listed as Streptomonospora sp.)
# chain: MTTANRAAHAADAAREPQVEAALARLDLDGRIRLLSGATMWAIAPNPDIGLERLVMSDGPVGVRGEHWTPDDPALQLPSPTALAATWDTELIRTVGRTLAQEARRKGVHVLLAPTVNIHRSPLGGRHFECYSEDPLLTGRIGTAYVDGVQDGGVGTTVKHFVANDSETDRFTVDVRVDERTLREIYLAPFEAIVDGARPWGVMAAYNGVNGTTMTEHARLNAVLRDEWGFDGFIVSDWTAARDTVGCALAGMDVAMPGPSTVYGENLRAAVREGRVPEGAVEAMARRVLRLAARVGALEGAEPAVAPAALPPAIDGRAVAREAAARSFTLLRNEGRALPIDPARVGSVALIGLAADEARTSGGGSATVFTEHTVSPREGLRAALPESVRLDYAVGADPRASLPPLAGPLTAAFRDADGTVLATERLADGTARWIGELPDGVTAEGLSTIEVSGTLTPAYTGTHVFGAKGVGHFRLAVGGRVGFDGVNEVDGDDPGAGFLNPPESTAEFALTAGEAVEVSVVATVPGVSADFAFIGFSLNHSEPRAGDDELIEEAVRTAAGADVAIVIAATTEEVESEGFDRDSLELPGRQDELVSRVAAANPRTVAVVNTGSPVVMPWRGDVAAVLLTWFGGQELGAALADVLLGAEEPGGRLPTTWPAEQADVPVIGVRPDGGVLEYSEGVFVGYRAWQRLGAEPAYWFGHGLGYTTWDYTGADAAVRLDGGVSVTARLANTGARRGREVVQVYVSPQEEGGAPERPRRWLAGFAPVVAEPGASAEAVVEVPARAFQVWDSAAHDWRTVPGGYDVLVGRSVADTPVSARVEIAG
# B2: 365 (protein)
# chain: MEDDGANSKTELSDQRKVALLSGADDWHTEAVPELGLEAVMMADGPHGLRKVMSASLADLQASEPATCFPTGSALAATWDRVLAGDVGRAIGREAVAEGVGVVLGPAVNLKRHPAAGRNFEYFSEDPFLAGELAVAWIDGVQGEGVGASLKHFAVNNQEANRMVVDAVVDPATLRELYLGAFEAAVRRSRPWTVMSAYNLLNGVYCSEDPWLLSELLRDQWGFDGLVVTDWGANDDRVAGIRAGQDLEMPGGHGTHDAAVLAALADGSLHRADLDGCVRRVLALLERADGARSGRPGSAMASPRPGADPDALHREHHQLARRAAAAGTVLLTNDGTLPLAPSGHVALIGEFAAHPRFQGGGSSQVKATRSDNLHAELRTHVDAAGGRVQYAPGYVLRARDDRPGEPARRVDEAVSIARGAEVAVVVVGLPDAVESEGFDRDHLHLPESHNILVRAVCAANPNTVVIVVAGSPVTMDWVDQPAAIIHGYLGGQAAGGALADVLVGAAEPGGRLAETFPVRSAGVASDRWFPGEPHQVTYREGPYIGYRWFDASGATPLFPFGHGLSYAEITLGVPTLSAQHVDAGVLLGGTDVVAPAEVPPPGAGPVAFTVTVPLTNAGDRAGSEVVQVYLESPDTGRPAAHRHLVGFAKVNLEPNSTREATVDVHARALCHWHPADRGWAVSAGTWGVAVGCSSGNLPHGLMVEVASSWSAPEPDPALDPYRNPRPDDWDPGVAAFEALLGRSVPEPTPVRPFTRNTTLGELGETRLGRPLLALVRAIVAHTTGGAHDEGGLGAMIDRSLGELPLRNLAVMSQGRVPMSAINRLIALANRMPGHPAGHPPGRPPGRSVGFTRPGRRR
# modifications: Candidatus microthrix
# B3: 63 (protein, listed as Gynuella sunshinyii)
# chain: MFDPVTILKQLNREEKVQLLCGLDAWHLHGVERLGIPSITLTDGPHGVRLAQSHDVFDSVDATVFPVEAAMAATWNVGLIKELAGAIAKECQQLGVSVLLGPGVNGKRSPLGGRNFEYFSEDPYLTGAMASNFVEGVQSQGVGACLKHFAGNEQETRRFLINSVIDERTLQEMYIAPFAKAIRESRPWTVMGAYNSVNGQFACQNSHLLQDILRDQLGFDGLVMSDWGAVGDKVACHQHGLDLEMPGPADRDQQLLDALDNGDMSEVVLDSRVLKVLELIHKSVTHKRDVQVDFERHHELAIEVACDSAVLLKNSGNLPLDKSRSIGLIGQFAKHPRFQGGGSSHMNPRHLSNAFEAFCSRAEVSWAMGYEELEMTDEMLREAVALAKRVDQVVLLTGTTDALESEGFDRSNMRLPEAHVELIKAVYQTNSNVVVVMYAGSALETRQIEDYAPSLMHAWLPGEGGGEALARLLFGEVSPSGKLSETFPVRLEHNPTYESFPGNKADTIYNEGIFTGYRYYDTKKLPVQYPFGYGLSYTSFAYSDLSYDASCREVAVNVTNIGDMAGAEVVQVYIHDEHSTLRRPDQELKGFAKVMLQPGETQRVSIALDEQAFAYFVTHLQRFAEESGRFEIRVGSSSRDIHESLWIELESDIECRQIPTLNDTVEDWLRDDRTRPILEDAFAQVGFTKDHSFYALTLGFPMTLLKKFMPMMGLTEQQCESLKDKLGLE
# B4: 229 (protein, listed as Nectria haematococca)
# chain: MASVDIPAILATLSLEEKVSLLAGKNLWETVPVPSKGVPNVKVSDGPNGARGASFAGGTTAACFPAACLMASTFDVKLAKRIGSALAEETQSKGARCLLAPTMCLHRHPLGGRNFESFSEDPLLTGKMAARVVEGLQDKGVSATIKHFAVNEQETDRLTVDETVNERALRELYLRPFEIAVKEANPWAVMTAYNKINGHHADCHPFTLKKVLRGDWGWNGLVMSDWGGTNSTPDSLEAGLDLEMPGPTRWRKPEDVIAAIKEGKTSEKTIDERATNVLRFLERLGCFKDPTIPDEKAINKPEHQALIREAGSKGIVLLKNQDKILPLSKEKVKGKKIALLGHAKIGLAHGGGSASVSAHYKVTPWDALHEALGDSVEFSYAKGAHTFRTLPAIAENVVGLDGKPGFTFKVYEPGSSEPIETRHGHADSEVSALGSFGFLNKDVSLEGAFTPQETAQYYFTCSGLGPSKLIIDDKVVYEQTENCSDAMGFLFGGVAAPEFKVALEAGRQYKLVLRTSPPSANDREDLGILEGLCGLRVGSMSESEHDRDLVSEAVEVAKNADYAVIFTGHEPFWETEGQDQVSFNLPKDGSQDRLISAVAAANPNTVVVNSTGVAIAMPWLNEIQGFLQTWYPGQECGNSIADVLTGAQTPEGHLTCTFPKKIEDCPAYGNFPGEYDNGKLKVTYKEGVFIGYRHFDRLPADKVNFPFGFGLSYTTFDFSSLEVKESGEGYTASLKVSNTGDVVGAIAVQVYVGAAQTAEENPVKQLVAFEKVTVKPGETASVEVPVRTRDFGFFDESKQKWVVKGGDYKFLIGKSARDIVLESTVAVKEQSFDL
# Experiments:
# Type in all cases: biochemical, Quillaja saponaria
# [1] = Experiment 4-1: screening of glucosidases for deglycosylation with purified QS-18 (0.04 mg/ml) at pH 7.5 and room temperature; conditions: pH 7.5, room temperature, 20 h, clarified E. coli lysate, QS-18 2150 to QS-21 1988 by LCMS/MS
# How it was run: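 Candidate glucosidases expressed in E. coli BL21(DE3) (pET24b+, autoinduction, 20 °C for 20 h); clarified lysates in 100 mM potassium phosphate pH 7.5 incubated with QS-18 (0.04 mg/ml final) 20 h at room temperature. Quenched with MeCN, analysed by LC-MS/MS for % conversion; hits >3 S.D. above negative control.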
# [2] = Experiment 4-2: screening of glucosidases for deglycosylation with purified QS-18 (1 mg/ml) at pH 6 and 30 deg C; conditions: pH 6, 30 degC, 18 hrs, clarified lysate, LCMS/MS
# How it was run: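 Clarified lysates of glucosidase-expressing cells in 100 mM potassium phosphate pH 6 were incubated 18 h at 30 °C with QS-18 at 1 mg/ml final. Reactions quenched with MeCN; deglycosylation activity determined by LC-MS/MS.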
# [3] = Experiment 4-4: screening of glucosidases for deglycosylation of QS-18 in crude bark extract (1 in 20 dilution) to QS-21; conditions: CBE 1 in 20 dilution, pH 6, 25 degC, 18 hours; % conversion of Middle Peak by UV HPLC
# How it was run: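 Clarified glucosidase lysates were incubated with pH 6 crude bark extract (1 in 20) in potassium phosphate buffer pH 6 for 18 h at 25 °C with shaking, then quenched with MeCN. UV HPLC with MS/MS-supported peak identity; activity is % conversion of the extract's Middle Peak (QS-18 family) toward the QS-21 peak.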
Molecule,Expt 4-1 % conv [1] [%],Expt 4-2 % conv [2] [%],Expt 4-4 % conv [3] [%]
B1,1.2,0.4,<3
B2,1.3,0.4,<3
B3,95.6,54.2,<3
B4,91.1,14.2,<3
